Assay [1] has as its target T1, MRA-hIgA (human).
T1 construct: also called human IgA; recombinant of human IgA
Description: SPR (Biacore T200), antibody captured on Protein A/G, MRA-hIgA as analyte, 37 C, pH 7.4, 1.2 mM Ca, 1:1 binding model. As to the method:
(§1) Using Biacore™ T200 surface plasma resonance assay (GE Healthcare), the obtained antibodies were assessed for their binding activity to human IgA (dissociation constant KD (M)). The measurement was carried out using as a running buffer 0.05% Tween 20® (polyoxyethylene (20) sorbitan monolaurate), 20 mmol/l ACES, 150 mmol/l NaCl (pH 7.4 or pH 5.8) containing 3 μM or 1.2 mM CaCl₂, or 0.05% Tween 20®, 20 mmol/l ACES, 150 mmol/l NaCl (pH 8.0) containing 0.1 μM or 10 mM CaCl₂.
(§2) After an adequate amount of recombinant Protein A/G (Thermo Scientific) was immobilized onto the Sensor chip CM5 (GE Healthcare) by an amino coupling method, antibodies were allowed to bind onto the sensor chip. An appropriate concentration of MRA-hIgA (described in (1-1)) was injected as an analyte to interact with antibodies on the sensor chip. Then, the sensor chip was regenerated by injecting 10 mmol/l glycine-HCl, pH 1.5. The measurement was carried out at 37° C. From the assay result, the dissociation constant KD (M) was calculated based on curve-fitting analysis and equilibrium constant analysis using Biacore™ T200 Evaluation Software (GE Healthcare).
On the technique in general: In SPR one partner is held on a chip, and binding of the other changes the refractive index at the surface.

The target of assay [2] is T1, MRA-hIgA. Description: SPR (Biacore T200), antibody captured on Protein A/G, MRA-hIgA as analyte, 37 C, pH 5.8, 3 uM Ca, steady state affinity. As to the method:
as §1, §2

Assay [3] deals with T1, MRA-hIgA. The experiment in a line: SPR (Biacore T200), antibody captured on Protein A/G, MRA-hIgA as analyte, 37 C, pH 7.4, 3 uM Ca, steady state affinity. As to the method:
as §1, §2

The target of assay [4] is T1, MRA-hIgA. The experiment in a line: SPR (Biacore T200), antibody captured on Protein A/G, MRA-hIgA as analyte, 37 C, pH 5.8, 1.2 mM Ca, steady state affinity. The method, then:
as §1, §2

A further assay addresses T2, GC-hIgA-FLAG (human).
T2 construct: Recombinant human IgA with a FLAG tag, not treated with SPDP; also called unaggregated hIgA; unaggregated human IgA
The experiment in a line: SPR (Biacore T200), antibody captured on Protein A/G on a CM5 chip, monomeric IgA injected as analyte, 37 C, running buffer pH 7.4 with 1.2 mM Ca; response normalized to capture ligand = 100 RU; analyte concentration not given [i]. As to the method:
The obtained antibodies were assessed for their binding to unaggregated hIgA and aggregated hIgA using Biacore™ T200 surface plasma resonance assay (GE Healthcare). The measurement was carried out using as a running buffer, 0.05% Tween 20®, 20 mmol/ACES, 150 mmol/l NaCl (pH 7.4 and pH 5.8) containing 3 μM or 1.2 mM CaCl₂.
After an adequate amount of recombinant Protein A/G (Thermo Scientific) was immobilized onto Sensor chip CM5 (GE Healthcare) by an amino coupling method, antibodies were allowed to bind onto the sensor chip. An appropriate concentration of hIgA (described in Example 1) was injected as an analyte to interact with antibodies on the sensor chip. Then, the sensor chip was regenerated by injecting 10 mmol/L Glycine-HCl, pH 1.5. The measurement was carried out at 37° C.

As usually defined, the Kd is the constant that tells how readily two partners part at equilibrium. Read a high Kd as lower affinity.

T1 sequence (VH, as listed by the source): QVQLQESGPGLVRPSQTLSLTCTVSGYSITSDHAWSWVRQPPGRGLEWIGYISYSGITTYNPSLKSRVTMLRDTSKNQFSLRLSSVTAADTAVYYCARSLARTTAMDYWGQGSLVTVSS
T2 sequence (VH, as listed by the source, chain 1 of 2): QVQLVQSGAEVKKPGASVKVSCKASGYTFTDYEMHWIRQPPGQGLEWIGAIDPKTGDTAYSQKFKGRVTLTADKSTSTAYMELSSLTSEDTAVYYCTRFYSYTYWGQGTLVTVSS
T2 sequence (VL, as listed by the source, chain 2 of 2): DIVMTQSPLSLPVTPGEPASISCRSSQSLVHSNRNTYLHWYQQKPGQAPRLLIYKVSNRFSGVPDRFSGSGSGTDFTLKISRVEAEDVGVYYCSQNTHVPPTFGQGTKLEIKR

B1: GA2-IgG1 (antibody, V domains shown)
VH: QVQLVQSGAEVKKPGSSVKVSCKASGGTFSSYAISWVRQAPGQGLEWMGGIIPIFGTANYAQKFQGRVTITADESTSTAYMELSSLRSEDTAVYYCARPRWETAISSDAFDIWGQGTMVTVSS
VL: DIQMTQSPSSLSASVGDRVTITCRASQSISDDLNWYQQKPGKAPKLLIYEASNLQSGVPSRFSGSGSGTDFTLTISSLQPEDFATYYCQQHSSSPLTFGQGTKVEIKR
notes: also called anti-hIgA antibody; anti-human IgA antibody
As to B1, the Kd with MRA-hIgA [1] worked out at 0.039 µM; in the assay with MRA-hIgA [2] it was 5 µM; with MRA-hIgA [3], 6.7 µM; with MRA-hIgA [4] it was 4 µM. The binding result in the assay with GC-hIgA-FLAG is “binds”.

The values above are taken from patent US20210122812A1 (Chugai, published 2021).
